According to patent publication US20150335719A1, “Intravitreal Injection of a Chimeric Phage Endolysin Ply187; Protection from Staphylococcus aureus Endophthalmitis” (priority 2014, published 2015):

Legend:
[1] = tested on: S. aureus strains/isolates RN6390, USA 300, R2932, R2952 and R3000; assay: Turbidity reduction assay; assay type: cell-based, Staphylococcus aureus; conditions: at MIC, measured every 5 min up to 1 h
Protocol: Error bars represent SEM for three independent experiments performed in triplicates. […] Cells surviving at half (½) of the MIC value were used as an inoculum for each subsequent round of exposure. The change in susceptibility is recorded and presented as fold change resistance from day 1 to 10 of exposure and also after 5 days of growth (without any selection pressure) following the 10th day (represented as 10+5). The data represent means±SEM of two independent experiments performed in triplicate.
To verify and quantify the lytic activity against live S. aureus, we have tested Ply187AN-KSH3b in the Turbidity Reduction Assay. The turbidity assay measures the drop in optical density (OD) resulting from lysis of the target bacteria with the phage endolysin-derived protein. Turbidity reduction assays by chimeric Ply187AN-KSH3b were performed in a 96 well plate as described previously by Becker et al. (2009a, 2009b, supra). Briefly, S. aureus strains/isolates RN6390, USA 300, and clinical isolates R2932, R2952 and R3000 were grown to logarithmic phase (OD600 0.4-0.6) at 37° C. in tryptic Soy broth (TSB). The culture was harvested by centrifugation and the pellet was resuspended in assay buffer (400 mM NaCl, 20 mM Tris HCl, 1% glycerol, pH 7.5). […] The reduction in the turbidity was measured after every 5 min up to 1 h using a micro plate reader. […]

[2] = tested on: S. aureus USA 300 (CA-MRSA); assay: MIC against S. aureus strains (Table 1); assay type: cell-based, Staphylococcus aureus; conditions: mean of three experiments ± SEM
Protocol: (§1) For in vivo studies, an antibiotic sensitive S. aureus (SA) strain RN6390 was used to induce endophthalmitis; whereas, the in vitro studies were performed using antibiotic-resistant strains (Table 1), including USA300, a community-associated methicillin resistant S. aureus (CA-MRSA), and three clinical isolates R2932 (CA-MRSA), R2952 and R3000 (both being hospital-associated MRSA, […]), […]) kindly provided by Dr. Michael J. Rybak (Department of Pharmaceutical Sciences, Wayne State University, Detroit, Mich.). All bacteria were routinely cultured in TSB broth (Tryptic Soy broth, Sigma, St Louis, Mo.) or on TSB agar plates.
(§2) To verify and quantify the lytic activity against live S. aureus, we have tested Ply187AN-KSH3b in the Turbidity Reduction Assay. The turbidity assay measures the drop in optical density (OD) resulting from lysis of the target bacteria with the phage endolysin-derived protein. Turbidity reduction assays by chimeric Ply187AN-KSH3b were performed in a 96 well plate as described previously by Becker et al. (2009a, 2009b, supra). Briefly, S. aureus strains/isolates RN6390, USA 300, and clinical isolates R2932, R2952 and R3000 were grown to logarithmic phase (OD600 0.4-0.6) at 37° C. in tryptic Soy broth (TSB). The culture was harvested by centrifugation and the pellet was resuspended in assay buffer (400 mM NaCl, 20 mM Tris HCl, 1% glycerol, pH 7.5). Bacterial cultures (100 μl/well) were mixed with 100 μl of (as per MIC) of chimeric Ply187AN-KSH3b protein diluted in the same assay buffer. The reduction in the turbidity was measured after every 5 min up to 1 h using a micro plate reader. EB diluted in the same assay buffer (without chimeric Ply187AN-KSH3b protein) was used as a control (EB C). Resistance development against chimeric Ply187AN-KSH3b was tested using repeated exposure in an MIC assay as described by Rodriguez-Rubio and co-workers (Rodriguez-Rubio et al., PLoS One 8:e64671.). In brief, bacterial cultures (10^5 CFU/well) were exposed overnight to a 2-fold serial dilution of chimeric Ply187AN-KSH3b, lysostaphin, and gentamicin, where the latter serve as controls. In every round, 100 μl culture from the wells with growth (½ MIC value) were inoculated into fresh TSB and grown up to logarithmic phase. These cultures were used for the next round of MIC exposure. Bacteria surviving after 10 rounds were grown for an additional 5 rounds in TSB without any selection pressure to allow phenotype-reversion, then MIC were performed to measure the sensitivity to the chimeric Ply187AN-KSH3b after non-selective growth.

[3] = tested on: S. aureus R 2952 (HA-MRSA); assay: MIC against S. aureus strains (Table 1); assay type: cell-based, Staphylococcus aureus; conditions: mean of three experiments ± SEM
Protocol: as §1, §2

[4] = tested on: S. aureus R 2932 (CA-MRSA); assay: MIC against S. aureus strains (Table 1); assay type: cell-based, Staphylococcus aureus; conditions: mean of three experiments ± SEM
Protocol: as §1, §2

[5] = tested on: S. aureus R 3000 (HA-MRSA); assay: MIC against S. aureus strains (Table 1); assay type: cell-based, Staphylococcus aureus; conditions: mean of three experiments ± SEM
Protocol: as §1, §2

S. aureus RN6390 = assay: Mouse S. aureus endophthalmitis: bacterial burden in eyes (plate count); assay type: in vivo, C57BL/6 mice; conditions: 24 h after treatment
Description: FIGS. 4 A, B and C depict the effect of chimeric Ply187AN-KSH3b on bacterial growth in vivo and in the vitreous humor (VH) in vitro and with increasing inoculums in vitro respectively. […] Twenty-four hours after the treatment, the eyes were enucleated, homogenized and the bacterial burden was estimated via serial dilution plating. FIG. 4B depicts a test showing the effect of the vitreous humor on Ply187AN-KSH3b antimicrobial activity where Ply187AN-KSH3b was mixed with calf vitreous humor and inoculated with 10^5 CFU of S. aureus. The survival of the bacteria was enumerated by CFU count at 2, 4 and 6 h of incubation. Statistical analysis was performed using unpaired student's t test (*, p<0.05; **, p<0.005; ***, p<0.0005). […] An increasing number of dilutions (1:10,000 to 1:10) of logarithmic phase of S. aureus (RN6390 strain) were treated with Ply187AN-KSH3b for 1 h followed by CFU enumeration on TSA plates. Statistical analysis was performed using unpaired student's t test (*, p<0.05; **, p<0.005; ***, p<0.0005).
The bacterial burden in both chimeric Ply187AN-KSH3b- and vehicle-treated eyes was estimated using a bacterial plate count method. At the desired time point, the eyes were enucleated and homogenized in sterile PBS by stainless steel beads using Tissue lyser (Qiagen, Valencia, Calif.). […] The results were expressed as the mean number of CFU/eye ±SEM.

[6] = tested on: inflammatory cytokines/chemokines in S. aureus-infected eyes; assay: Mouse S. aureus endophthalmitis: inflammatory cytokines/chemokines by ELISA; assay type: in vivo, C57BL/6 mice
Protocol: Following treatment with chimeric Ply187AN-KSH3b or EB (EB C), the eyes (n=4 per time point) were enucleated and 10 μg protein lysate was used for the detection of indicated inflammatory cytokines/chemokines by ELISA. *p<0.05, **p<0.005 (student t-test, SA or EB vs. Ply187AN-KSH3b-treated)
To measure the inflammatory cytokines, retinal extracts were processed by homogenization in 250 μl of PBS, followed by centrifugation at 12,000×g for 10 min. PBS-injected mice were used as normal controls (PBS C) and EB-treated mice were used as vehicle controls (EB C). The protein concentration of the retinal lysate was determined by the Micro BCA™ protein assay kit (Thermoscientific, Rockford, Ill.). Equal amounts of protein were used to perform the ELISA, per the manufacturer's instructions (BD biosciences, San Diego, Calif. (IL-6, IL1β & TNFα) and R & D systems, Minneapolis, Minn. (MIP2 & KC).

[7] = 6 h and 12 h treatment, vs vehicle-treated and S. aureus control eyes

B1: Ply187AN-KSH3b: staphylococcal peptidoglycan hydrolase fusion protein: endopeptidase domain of prophage endolysin Ply187 plus SH3b cell wall-binding domain of phage K endolysin LysK (SEQ ID NO:1) (protein)
chain: MALPKTGKPTAKQVVDWAINLIGSGVDVDGYYGRQCWDLPNYIFNRYWNFKTPGNARDMAWYRYPEGFKVFRNTSDFVPKPGDIAVWTGGNYNWNTWGHTGIVVGPSTKSYFYSVDQNWNNSNSYVGSPAAKIKHSYFGVTHFVRPAYKAEPKPTPPLESTPATRPVTGSWKKNQYGTWYKPENATFVNGNQPIVTRIGSPFLNAPVGGNLPAGATIVYDEVCIQAGHIWIGYNAYNGNRVYCPVRTCQGVPPNQIPGVAWGVFKVEHHHHHH
modifications: Chemically Synthesized Fusion Protein
- reduction in the turbidity of suspension culture [1]: time-dependent reduction in the turbidity
- MIC [2]: 4.16 ± 1.04 µg/mL
- MIC [3]: 8.33 ± 2.08 µg/mL
- MIC [4]: 4.16 ± 1.04 µg/mL
- MIC [5]: 4.16 ± 1.04 µg/mL
- bacterial burden recovered (S. aureus RN6390; treatment 6 h post infection): 3.6×10^3 CFU/eye
- bacterial burden recovered (S. aureus RN6390; treatment 12 h post infection): 2.9×10^4 CFU/eye
- level of IL-1β [6, 7]: dramatically reduced levels
- level of IL-6 [6, 7]: dramatically reduced levels
- level of KC (CXCL1) [6, 7]: dramatically reduced levels
- level of MIP2 (CXCL2) [6, 7]: dramatically reduced levels
- level of TNFα [6, 7]: dramatically reduced levels
- MIP-2 reduction, 6 h compared with 12 h treatment ([6]; 6 h vs. 12 h treatment): greater reduction after 6 h vs. 12 h treatment
